# Measured values reported in the RNAGym collection of RNA variant scans (doi:10.1021/acssynbio.7b00057).
# B1: Pistol ribozyme (parent)
# chain: GGGUCGUUGUUCCAUAAUCGCGUGGAUAUGGCACGCAAGUUUCUACCGGGCACCGUAAAUGUCCGACUGGAGCCGUUCGGGCGGCUAUAAACAGACCUCAGGCCCGAAGCGUGGCGGCACCUGCCGCCGGUGGUAAAAAAGAUCGGAAGAGCACACGUCU
# Variants of: B1
# Assay: aptazyme ON/OFF ratio, guanine; higher = stronger switching; co-transcriptional cleavage with and without guanine
row,Variant,aptazyme ON/OFF ratio
1,U7A G9A U10G U11G C12U C13G,1.33
2,U7A G9A U10G U11G C12U C13A,1.17
3,U7A G9A U10G U11G C12U C13U,1.26
4,U7A G9A U11A C12G,1.23
5,U7A G9A U11A C12U,1.54
6,U7A G9A U11A C12A,1.34
7,U7A G9A U11C C13G,1.08
8,U7A G9A U11C C13A,1.07
9,U7A G9A U11C C13U,1.03
10,U7A G9C C12U C13G,1.07
11,U7A G9C C12U C13A,1.05
12,U7A G9C C12U C13U,1.1
13,U7A G9C U10G C12A,1.09
14,U7A G9C U10G C12G,1.11
15,U7A G9C U10G C12U,1.2
16,U7A G9A U10G U11A C12G C13A,1.12
17,U7A G9A U10G U11A C12G C13G,1.31
18,U7A G9A U10G U11A C12G C13U,1.17
19,U7A G9C U10G U11G C12A C13U,1.08
20,U7A G9C U10G U11G C12A C13A,1.11
21,U7A G9C U10G U11G C12A C13G,1.06
22,U7A G9C C13A,1.02
23,U7A G9C C13G,1.06
24,U7A G9C C13U,1.12

row,Variant,aptazyme ON/OFF ratio
1,U7A G9A U10G,1.53
2,U7A G9C U10C U11C C12G,1.03
3,U7A G9C U10C U11C C12U,1.04
4,U7A G9C U10C U11C C12A,1.01
5,U7A G9C U10C U11G C12U,1.06
6,U7A G9C U10C U11G C12G,1.1
7,U7A G9C U10C U11G C12A,1.04
8,U7A G9C U10A U11A C12G C13U,1.1
9,U7A G9C U10A U11A C12G C13A,1.04
10,U7A G9C U10A U11A C12G C13G,1.1
11,U7A G9C U10A C12G C13U,1.17
12,U7A G9C U10A C12G C13A,1.13
13,U7A G9C U10A C12G C13G,1.14
14,U7A G9C U10A U11A C12U C13G,1.1
15,U7A G9C U10A U11A C12U C13A,1.13
16,U7A G9C U10A U11A C12U C13U,1.1
17,U7A G9C U10G U11G C12A,1.11
18,U7A G9C U10G U11G C12G,1.16
19,U7A G9C U10G U11G C12U,1.14
20,U7A G9C U10A U11G C12U C13A,1.03
21,U7A G9C U10A U11G C12U C13U,1.16
22,U7A G9C U10A U11G C12U C13G,1.07
23,U7A G9C U10G U11G C13A,1.13
24,U7A G9A U10C U11G C13U,1.25

row,Variant,aptazyme ON/OFF ratio
1,U7A G9A U10C U11G C13A,1.22
2,U7A G9A U10C U11G C13G,1.19
3,U7A G9A U10G U11G C13A,1.25
4,U7A G9A U10G U11G C13G,1.25
5,U7A G9A U10G U11G C13U,1.09
6,U7A G9C U10A U11C C12G C13U,1.17
7,U7A G9C U10A U11C C12G C13A,1.08
8,U7A G9C U10A U11C C12G C13G,1.12
9,U7A G9C U10C U11A C13U,1.09
10,U7A G9C U10C U11A C13A,1.07
11,U7A G9C U10C U11A C13G,1.12
12,U7A G9C U10A U11G C13A,1.03
13,U7A G9C U10A U11G C13G,1.06
14,U7A G9C U10A U11G C13U,1.09
15,U7A G9A U10G U11G C12G,1.38
16,U7A G9A U10G U11G C12A,1.06
17,U7A G9A U10G U11G C12U,1.47
18,U7A G9C U10C U11A C12U C13A,1.04
19,U7A G9C U10C U11A C12U C13U,1.06
20,U7A G9C U10C U11A C12U C13G,1.08
21,U7A G9C,1.25
22,U7A G9C U10C C12U,1.17
23,U7A G9C U10C C12A,1.04
24,U7A G9C U10C C12G,1.07

row,Variant,aptazyme ON/OFF ratio
1,U7A G9C U10G U11C C12U,1.04
2,U7A G9C U10G U11C C12A,1.08
3,U7A G9C U10G U11C C12G,1.08
4,U7A G9C U10G U11C,1.03
5,U7A G9C U10G U11G,1.06
6,U7A G9C U10G U11A,1.03
7,U7A G9C U10C U11A C12A C13A,1.07
8,U7A G9C U10C U11A C12A C13G,1.06
9,U7A G9C U10C U11A C12A C13U,1.03
10,U7A G9A U10G U11C C12G C13A,1.27
11,U7A G9A U10G U11C C12G C13U,1.1
12,U7A G9A U10G U11C C12G C13G,1.18
13,U7A G9A U10G U11A C13U,1.06
14,U7A G9A U10G U11A C13A,1.09
15,U7A G9A U10G U11A C13G,1.03
16,U7A G9C U10G U11A C12U C13A,1.06
17,U7A G9C U10G U11A C12U C13U,1.05
18,U7A G9C U10G U11A C12U C13G,1.07
19,U7A G9C U10G U11A C12G,1.06
20,U7A G9C U10G U11A C12U,1.04
21,U7A G9C U10G U11A C12A,1.1
22,U7A G9C C12G C13U,1.05
23,U7A G9C C12G C13A,1.05
24,U7A G9C C12G C13G,1.05

row,Variant,aptazyme ON/OFF ratio
1,U7A G9A U10G C12U,1.41
2,U7A G9A U10G C12A,1.13
3,U7A G9A U10G C12G,1.21
4,U7A G9A U11G C12G C13A,1.17
5,U7A G9A U11G C12G C13G,1.24
6,U7A G9A U11G C12G C13U,1.42
7,U7A G9C U10C U11G C12U C13A,1.04
8,U7A G9C U10C U11G C12U C13G,1.04
9,U7A G9C U10C U11G C12U C13U,1.06
10,U7A G9A U11G C12A C13U,1.28
11,U7A G9A U11G C12A C13G,1.28
12,U7A G9A U11G C12A C13A,1.1
13,U7A G9C U10A U11C C12A C13U,1.09
14,U7A G9C U10A U11C C12A C13A,1.06
15,U7A G9C U10A U11C C12A C13G,1.1
16,U7A G9A U11C C12G C13A,1.18
17,U7A G9A U11C C12G C13G,1.17
18,U7A G9A U11C C12G C13U,1.15
19,U7A G9C U10G U11G C12U C13A,1.09
20,U7A G9C U10G U11G C12U C13U,1.16
21,U7A G9C U10G U11G C12U C13G,1.12
22,U7A G9A U11A C12G C13U,1.28
23,U7A G9A U11A C12G C13G,1.16
24,U7A G9A U11A C12G C13A,1.19

row,Variant,aptazyme ON/OFF ratio
1,U7A G9C U10A C12U C13U,1.12
2,U7A G9C U10A C12U C13G,1.11
3,U7A G9C U10A C12U C13A,1.14
4,U7A G9A U11C C12U C13U,1.22
5,U7A G9A U11C C12U C13G,1.27
6,U7A G9A U11C C12U C13A,1.1
7,U7A G9C U10G U11C C12U C13A,1.05
8,U7A G9C U10G U11C C12U C13U,1.09
9,U7A G9C U10G U11C C12U C13G,1.07
10,U7A G9C U10G U11A C12G C13G,1.21
11,U7A G9C U10G U11A C12G C13A,1.07
12,U7A G9C U10G U11A C12G C13U,1.06
13,U7A G9C U10G U11C C12G C13A,1.11
14,U7A G9C U10G U11C C12G C13U,1.17
15,U7A G9C U10G U11C C12G C13G,1.21
16,U7A G9C U10A U11C C13A,1.01
17,U7A G9C U10A U11C C13U,1.05
18,U7A G9C U10A U11C C13G,1.06
19,U7A G9C U10G C13G,1.14
20,U7A G9C U10G C13A,1.15
21,U7A G9C U10G C13U,1.33
22,U7A G9C U10G C12U C13A,1.06
23,U7A G9C U10G C12U C13U,1.56
24,U7A G9C U10G C12U C13G,1.11

row,Variant,aptazyme ON/OFF ratio
1,U7A G9A U11A C12U C13G,1.22
2,U7A G9A U11A C12U C13U,1.42
3,U7A G9A U11A C12U C13A,1.24
4,U7A G9C U10C U11G C12G C13U,1.05
5,U7A G9C U10C U11G C12G C13G,1.17
6,U7A G9C U10C U11G C12G C13A,1.07
7,U7A G9C U10C C12U C13A,1.04
8,U7A G9C U10C C12U C13U,1.06
9,U7A G9C U10C C12U C13G,1.01
10,U7A G9C U10A U11A C12A C13G,1.07
11,U7A G9C U10A U11A C12A C13U,1.09
12,U7A G9C U10A U11A C12A C13A,1.13
13,U7A G9C U10C U11G C12A C13G,1.05
14,U7A G9C U10C U11G C12A C13U,1.02
15,U7A G9C U10C U11G C12A C13A,1.04
16,U7A G9C U10C U11A,1.07
17,U7A G9C U10C U11C,0.989
18,U7A G9C U10C U11G,1.02
19,U7A G9A U10G U11C C13G,1.11
20,U7A G9A U10G U11C C13A,1.19
21,U7A G9A U10G U11C C13U,1.02
22,U7A G9A U10G U11C,1.06
23,U7A G9A U10G U11A,1.06
